Reference: patent publication US20140087995A1 (published 2014)
Where two headings read alike, the source gives them in different places. Numbered stars: 1 amine (or outer) side, 2 acyl side, 3 side chain; on linkers, the order of the positions; unused ones are H or OH. Bridge positions count the residues as written; N and C are the ends. Square brackets hold non-standard residues; d marks the D form. Side chains are listed from the residue outwards. Ends that are not written are not given here. * marks the point of attachment. C20 diacid = O=C(O)CCCCCCCCCCCCCCCCCCC(=O)*; γGlu = O=C(O)[C@H](CCC(=O)[*:2])N[*:1]; AEEA = NCCOCCOCC(=O)O

Tests used:
[1] = target: T1, rat amylin receptor (rat calcitonin receptor + rat RAMP 3) (rat, UniProt P32214 25-516; Q9JJ73 23-147); experiment: SPA competition binding, displacement of 125I-rat amylin from membranes of BHK tk'ts 13 cells with rat calcitonin receptor + rat RAMP 3 (Assay VI)
T1 construct: whole, on cells; Receptor complex in cell membranes prepared from transiently transfected BHK tk'ts 13 cells (Assay VI); also called rAmylin-R; rat amylin 3(a) receptor
T1 sequence (looked up) 1: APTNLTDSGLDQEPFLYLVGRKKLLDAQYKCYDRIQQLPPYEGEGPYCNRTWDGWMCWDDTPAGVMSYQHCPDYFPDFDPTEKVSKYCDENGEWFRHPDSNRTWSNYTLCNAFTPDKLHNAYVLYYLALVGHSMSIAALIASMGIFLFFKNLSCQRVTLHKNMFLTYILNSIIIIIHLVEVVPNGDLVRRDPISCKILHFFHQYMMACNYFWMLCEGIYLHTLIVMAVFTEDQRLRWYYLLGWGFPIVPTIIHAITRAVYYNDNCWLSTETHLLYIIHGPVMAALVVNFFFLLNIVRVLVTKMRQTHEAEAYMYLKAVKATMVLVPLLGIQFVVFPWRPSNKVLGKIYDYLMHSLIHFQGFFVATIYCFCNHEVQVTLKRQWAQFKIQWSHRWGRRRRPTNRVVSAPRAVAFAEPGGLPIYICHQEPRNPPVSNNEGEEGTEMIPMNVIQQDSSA
T1 sequence (looked up) 2: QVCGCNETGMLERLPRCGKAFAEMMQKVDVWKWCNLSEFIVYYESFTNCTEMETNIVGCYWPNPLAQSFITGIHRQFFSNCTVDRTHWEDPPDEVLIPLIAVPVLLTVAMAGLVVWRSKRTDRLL
Experimental: (§1) The binding assay was performed using scintillation proximity assay (SPA) beads (RPNQ0001) from PerkinElmer and cell membranes from the Amylin 3(a)/CRE-luc cells (as described in Assay (II)) were used. Membranes were prepared in the following way; the cells were rinsed with PBS and incubated with Versene for approximately 5 min before harvesting. The cells were flushed with PBS and the cell-suspension was centrifuged for 5 min at 1000 rpm. Cells were homogenized (ultrathurrax) in a buffer containing 20 mM Na-HEPES and 10 mM EDTA (pH 7.4) and centrifuged at 20.000 rpm for 15 min. The resulting pellet was resuspended, homogenized and centrifuged (20.000 rpm, 15 min) in a buffer containing 20 mM Na-HEPES and 0.1 mM EDTA (pH 7.4, buffer 2). The resulting pellet was resuspended in buffer 2 and protein concentration was measured (BCA protein Assay, Pierce). The homogenate was kept cold during the whole procedure. The membranes were kept at −80° C. until use. The assay was performed in a 384 well Optiplate (PerkinElmer) in a total volume of 40 ul. Membranes were mixed with SPA beads. Final concentration of membranes 35 ng/μL final and SPA beads was 0.05 mg/well. Test-compounds were dissolved in DMSO and further diluted in assay buffer (50 mM Hepes, pH 7.4, 1 mM CaCl2, 5 mM MgCl₂, 0.1% OA and 0.02% Tween20). […] The final mixture was incubated with shaking at 400 rpm for 120 min at 25° C. prior to centrifugation (1500 rpm, 10 min). Samples were analyzed on TopCounter™ (Packard). The IC₅₀ was calculated using (one site binding competition analysis) GraphPad Prism5 as a measure of receptor affinity.
Cells were grown in DMEM with 10% FBS and 1% Pen/Strep. Approximately 48 hours after transfection, the cells were harvested and membranes were prepared.

rat calcitonin receptor = target: T2, rat calcitonin receptor (rat, UniProt P32214 25-516); experiment: SPA competition binding, displacement of 125I-Calcitonin from membranes of BHK tk'ts 13 cells with rat calcitonin receptor (Assay VIII)
T2 construct: whole, on cells; In cell membranes prepared from transiently transfected BHK tk'ts 13 cells (Assay VIII); also called rCTR; rat calcitonin (a) receptor
T2 sequence (looked up): T1 sequence (looked up) 1

[2] = target: T3, human calcitonin receptor (human, UniProt P30988 25-474); experiment: cell-based or functional assay
T3 sequence (looked up): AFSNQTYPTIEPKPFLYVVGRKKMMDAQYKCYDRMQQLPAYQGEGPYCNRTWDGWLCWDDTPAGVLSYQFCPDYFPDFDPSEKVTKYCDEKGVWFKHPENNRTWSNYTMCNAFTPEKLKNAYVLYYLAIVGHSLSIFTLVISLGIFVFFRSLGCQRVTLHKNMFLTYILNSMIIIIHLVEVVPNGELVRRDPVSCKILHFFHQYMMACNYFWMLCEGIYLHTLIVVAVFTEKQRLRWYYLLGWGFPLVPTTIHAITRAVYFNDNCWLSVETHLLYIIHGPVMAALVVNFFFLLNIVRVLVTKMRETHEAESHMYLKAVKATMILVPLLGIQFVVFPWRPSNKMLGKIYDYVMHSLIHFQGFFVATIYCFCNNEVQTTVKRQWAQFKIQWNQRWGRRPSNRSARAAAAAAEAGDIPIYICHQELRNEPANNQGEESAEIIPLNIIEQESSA

[3] = target: T4, human amylin 3(a) receptor (human calcitonin receptor co-expressed with RAMP-3) (human, UniProt P30988 25-474; O60896 24-148, limits assumed); experiment: cell-based or functional assay
T4 sequence (looked up) 1: T3 sequence (looked up)
T4 sequence (looked up) 2: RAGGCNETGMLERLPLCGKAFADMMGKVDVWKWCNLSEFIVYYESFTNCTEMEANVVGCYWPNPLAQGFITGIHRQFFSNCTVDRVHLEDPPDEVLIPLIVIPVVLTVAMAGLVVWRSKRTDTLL

[4] = target: T5, human amylin receptor (amylin 3(a) receptor: human calcitonin receptor plus RAMP-3) (human, UniProt P30988 25-474; O60896 24-148); experiment: SPA competition, displacement of 125I-rat amylin from membranes of BHK cells with human calcitonin receptor + RAMP-3 (Assay V)
T5 construct: whole, on cells; functional assay used the whole cells; also called hAmylin-R; hAmylinR
T5 sequence (looked up) 1: T3 sequence (looked up)
T5 sequence (looked up) 2: T4 sequence (looked up) 2
Experimental: as §1

[5] = target: T5, human amylin receptor (amylin 3(a) …); experiment: cell-based or functional assay
[6] = target: T6, human calcitonin receptor (human, UniProt P30988 25-474); experiment: cell-based or functional assay; remark: listed apart in the source
T6 sequence (looked up): T3 sequence (looked up)

[7] = target: T5, human amylin receptor (amylin 3(a) …); experiment: SPA competition, displacement of 125I-rat amylin from membranes of BHK cells with human calcitonin receptor + RAMP-3 (Assay V); remark: listed apart in the source
Experimental: as §1

[8] = target: T5, human amylin receptor (amylin 3(a) …); experiment: cell-based or functional assay; remark: listed apart in the source
[9] = target: T6, human calcitonin receptor; experiment: cell-based or functional assay; remark: listed apart in the source

B1: N^ε1-[(4S)-4-carboxy-4-[[(4S)-4-carboxy-4-(19-carboxynonadecanoylamino)butanoyl]amino]butanoyl]-[D-Asp14,Arg17,Pro21,Pro27,Arg35]-h-amylin (peptide)
peptide: K([γGlu-γGlu-C20 diacid])CNTATCATQRLA[dD]FLRHSSPNFGAIPSSTNVGSRTY-NH2
modifications: disulfide 2-7; N-terminus assumed
SMILES: CC[C@H](C)[C@H](NC(=O)[C@H](C)NC(=O)CNC(=O)[C@H](Cc1ccccc1)NC(=O)[C@H](CC(N)=O)NC(=O)[C@@H]1CCCN1C(=O)[C@H](CO)NC(=O)[C@H](CO)NC(=O)[C@H](Cc1c[nH]cn1)NC(=O)[C@H](CCCNC(=N)N)NC(=O)[C@H](CC(C)C)NC(=O)[C@H](Cc1ccccc1)NC(=O)[C@@H](CC(=O)O)NC(=O)[C@H](C)NC(=O)[C@H](CC(C)C)NC(=O)[C@H](CCCNC(=N)N)NC(=O)[C@H](CCC(N)=O)NC(=O)[C@@H](NC(=O)[C@H](C)NC(=O)[C@@H]1CSSC[C@H](NC(=O)[C@@H](N)CCCCNC(=O)CC[C@H](NC(=O)CC[C@H](NC(=O)CCCCCCCCCCCCCCCCCCC(=O)O)C(=O)O)C(=O)O)C(=O)N[C@@H](CC(N)=O)C(=O)N[C@@H]([C@@H](C)O)C(=O)N[C@@H](C)C(=O)N[C@@H]([C@@H](C)O)C(=O)N1)[C@@H](C)O)C(=O)N1CCC[C@H]1C(=O)N[C@@H](CO)C(=O)N[C@@H](CO)C(=O)N[C@H](C(=O)N[C@@H](CC(N)=O)C(=O)N[C@H](C(=O)NCC(=O)N[C@@H](CO)C(=O)N[C@@H](CCCNC(=N)N)C(=O)N[C@H](C(=O)N[C@@H](Cc1ccc(O)cc1)C(N)=O)[C@@H](C)O)C(C)C)[C@@H](C)O
notes: residue 14 is D-aspartic acid (printed 14d)
IC50 [1]: 1.69 nM
IC50 (rat calcitonin receptor): 536 nM

B2: N^-1-[(4S)-4-carboxy-4-(19-carboxynonadecanoylamino)butanoyl]-Gly[Arg1,Arg17,Pro21,Pro27,His35]-h-amylin (peptide)
peptide: {C20 diacid-γGlu}-GRCNTATCATQRLANFLRHSSPNFGAIPSSTNVGSHTY-NH2
modifications: disulfide 3-8
SMILES: CC[C@H](C)[C@H](NC(=O)[C@H](C)NC(=O)CNC(=O)[C@H](Cc1ccccc1)NC(=O)[C@H](CC(N)=O)NC(=O)[C@@H]1CCCN1C(=O)[C@H](CO)NC(=O)[C@H](CO)NC(=O)[C@H](Cc1c[nH]cn1)NC(=O)[C@H](CCCNC(=N)N)NC(=O)[C@H](CC(C)C)NC(=O)[C@H](Cc1ccccc1)NC(=O)[C@H](CC(N)=O)NC(=O)[C@H](C)NC(=O)[C@H](CC(C)C)NC(=O)[C@H](CCCNC(=N)N)NC(=O)[C@H](CCC(N)=O)NC(=O)[C@@H](NC(=O)[C@H](C)NC(=O)[C@@H]1CSSC[C@H](NC(=O)[C@H](CCCNC(=N)N)NC(=O)CNC(=O)CC[C@H](NC(=O)CCCCCCCCCCCCCCCCCCC(=O)O)C(=O)O)C(=O)N[C@@H](CC(N)=O)C(=O)N[C@@H]([C@@H](C)O)C(=O)N[C@@H](C)C(=O)N[C@@H]([C@@H](C)O)C(=O)N1)[C@@H](C)O)C(=O)N1CCC[C@H]1C(=O)N[C@@H](CO)C(=O)N[C@@H](CO)C(=O)N[C@H](C(=O)N[C@@H](CC(N)=O)C(=O)N[C@H](C(=O)NCC(=O)N[C@@H](CO)C(=O)N[C@@H](Cc1c[nH]cn1)C(=O)N[C@H](C(=O)N[C@@H](Cc1ccc(O)cc1)C(N)=O)[C@@H](C)O)C(C)C)[C@@H](C)O
notes: h-amylin derivative, N-terminally extended by one residue; disulfide bridge and C-terminal amide as told for human amylin; also called compound 47
hCTR funct. EC50 [2]: 1.32 nM
Ratio hCT/hAmylin funct. [3]: 6

B3: N^ε1-[2-[2-[2-[[(4S)-4-carboxy-4-(19-carboxynonadecanoylamino)butanoyl]amino]ethoxy]ethoxy]acetyl]-[Arg17,Pro21,Pro27,Pro31,His35]-h-amylin (peptide)
peptide: K([AEEA-γGlu-C20 diacid])CNTATCATQRLANFLRHSSPNFGAIPSSTPVGSHTY-NH2
modifications: disulfide 2-7; N-terminus assumed
SMILES: CC[C@H](C)[C@H](NC(=O)[C@H](C)NC(=O)CNC(=O)[C@H](Cc1ccccc1)NC(=O)[C@H](CC(N)=O)NC(=O)[C@@H]1CCCN1C(=O)[C@H](CO)NC(=O)[C@H](CO)NC(=O)[C@H](Cc1c[nH]cn1)NC(=O)[C@H](CCCNC(=N)N)NC(=O)[C@H](CC(C)C)NC(=O)[C@H](Cc1ccccc1)NC(=O)[C@H](CC(N)=O)NC(=O)[C@H](C)NC(=O)[C@H](CC(C)C)NC(=O)[C@H](CCCNC(=N)N)NC(=O)[C@H](CCC(N)=O)NC(=O)[C@@H](NC(=O)[C@H](C)NC(=O)[C@@H]1CSSC[C@H](NC(=O)[C@@H](N)CCCCNC(=O)COCCOCCNC(=O)CC[C@H](NC(=O)CCCCCCCCCCCCCCCCCCC(=O)O)C(=O)O)C(=O)N[C@@H](CC(N)=O)C(=O)N[C@@H]([C@@H](C)O)C(=O)N[C@@H](C)C(=O)N[C@@H]([C@@H](C)O)C(=O)N1)[C@@H](C)O)C(=O)N1CCC[C@H]1C(=O)N[C@@H](CO)C(=O)N[C@@H](CO)C(=O)N[C@H](C(=O)N1CCC[C@H]1C(=O)N[C@H](C(=O)NCC(=O)N[C@@H](CO)C(=O)N[C@@H](Cc1c[nH]cn1)C(=O)N[C@H](C(=O)N[C@@H](Cc1ccc(O)cc1)C(N)=O)[C@@H](C)O)C(C)C)[C@@H](C)O
notes: also called compound 57
IC50 [4]: 0.115 nM
Ratio hCT/hAmylin funct. [5]: 35
hAmylin-R funct. EC50 (pM) [5]: 89 pM
hCTR funct. EC50 (pM) [6]: 3120 pM
IC50 [7]: 0.115 nM
Ratio hCT/hAmylin funct. [8]: 35
hAmylin-R funct. EC50 (pM) [8]: 89 pM
hCTR funct. EC50 (pM) [9]: 3120 pM
